What is called Ki is the equilibrium dissociation constant of an inhibitor or competing ligand from its target. Lower therefore signals tighter binding. The Kd is the constant that tells how readily two partners part at equilibrium. Low values mean higher affinity, high ones lower affinity.

*1 amine or outer side, *2 acyl side, *3 side chain or, on linkers, in order; H or OH if unused. Bridges are numbered along the chain shown (N, C = ends). Where no end group is shown, it is not given here. [ ]: non-standard residue; d: D form. TATA = O=C(CC[*:1])N1CN(C(=O)CC[*:2])CN(C(=O)CC[*:3])C1; 1Nal = N[C@@H](Cc1cccc2ccccc12)C(=O)O; 2Nal = N[C@@H](Cc1ccc2ccccc2c1)C(=O)O; hArg = N=C(N)NCCCC[C@H](N)C(=O)O; Pip = O=C(O)[C@@H]1CCCCN1; Nle = CCCC[C@H](N)C(=O)O; Aze = O=C(O)[C@@H]1CCN1

First the molecules themselves.
B1: BCY428 (peptide)
peptide: ACPFGCMKNWSWPIWCA
modifications: linker 2-6-16 via TATA
notes: Bicyclic peptide cyclised with TATA; also called 80-09-02-N002
B2: BCY7391 (peptide)
peptide: Ac-CPFGCMKNWSWPIWCTNK
modifications: linker 1-5-15 via TATA
notes: Bicyclic peptide cyclised with TATA; also called 80-09-02-T01-N011
B3: BCY7390 (peptide)
peptide: Ac-CPFGCMKNWSWPIWC
modifications: linker 1-5-15 via TATA
notes: Bicyclic peptide cyclised with TATA; also called 80-09-02-N008

The first test deals with T1, human Nectin-4 (human, UniProt Q96NY8 32-349).
T1 construct: a Gly32-Ser349 FLAG construct is described only under the SPR assay; also called PVRL4
T1 sequence (looked up): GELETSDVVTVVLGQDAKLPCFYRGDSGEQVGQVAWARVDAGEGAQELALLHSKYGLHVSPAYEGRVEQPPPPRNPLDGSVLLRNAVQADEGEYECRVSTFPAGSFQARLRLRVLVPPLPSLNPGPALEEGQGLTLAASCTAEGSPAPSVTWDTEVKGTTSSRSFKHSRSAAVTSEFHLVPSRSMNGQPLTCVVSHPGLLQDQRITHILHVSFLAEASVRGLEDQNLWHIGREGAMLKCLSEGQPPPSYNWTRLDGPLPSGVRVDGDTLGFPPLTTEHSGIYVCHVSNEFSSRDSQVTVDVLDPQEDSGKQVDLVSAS
In words: FP competition, tracer SEQ ID NO 217. The method, then:
Peptides were diluted to an appropriate concentration in assay buffer as described in the direct binding assay with a maximum of 5% DMSO, then serially diluted 1 in 2. […] Measurements were conducted as for the direct binding assay, however the gain was determined prior to the first measurement. Data analysis was in Systat Sigmaplot version 12.0 where the mP values were fit to a user defined cubic equation to generate a Ki value: […]
Take ACPFGCQEDWSWPIWCLSE (linker 2-6-16 via TATA) [BCY3398]: the inhibition constant (Ki) was 164 nM.

On to XACPFGCMKNWSWPIWCA (N-terminal X = 2-Nal; TATA on 3 Cys, also called 80-09-02-N010) [BCY7421], for which the affinity corresponds to a Ki of 28.5 nM. This Ki lies about 5.8-fold lower than the previous one.

QKWCAPLSDYWCN[hArg]ICA (linker 4-12-16 via TATA) [BCY7279]: the affinity, expressed as Ki, was 44.4 nM.

ACPF[dA]CMKNWSWPIWCTNK (linker 2-6-16 via TATA) [BCY7350] displayed a Ki of 10 nM. Compared with the last molecule, the Ki is about 4.4-fold lower.

Molecule AC[dA]FGCMKNWSWPIWCTNK (linker 2-6-16 via TATA) [BCY7370] came in with a Ki of 144 nM.

ACPFGCMXNWSWPIWCTNK (core CPFGCM[K(Ac)]NWSWPIWC; TATA on 3 Cys) [BCY7266] displayed a Ki of 41 nM.

As to HDSCPFGC[Nle]KSWSWPIWCA (linker 4-8-18 via TATA) [BCY7274], the Ki was determined as 90.5 nM. This Ki is about 2.2-fold higher than that of the molecule before.

For the molecule ACPFGCMKNWSWP[dA]WCTNK (linker 2-6-16 via TATA) [BCY7365], affinity was put at a Ki of 282 nM.

ACPFGCQEHWSWPIWCTTA (linker 2-6-16 via TATA) [BCY3396] registered a Ki of 102 nM.

ACPFGCMKNWSWPIWCTN[hArg] (linker 2-6-16 via TATA, also called 80-09-02-T01-N003) [BCY7281] came in with a Ki of 22.9 nM.

Regarding ACPFGCMKGWSWPIWCLKD (linker 2-6-16 via TATA) [BCY3395], affinity was put at a Ki of 17.4 nM.

The molecule ACPFGCIKSWSWPIWCQME (linker 2-6-16 via TATA) [BCY3397] gave a Ki of 33.2 nM.

QK(Ac)WCAPLSDYWCNRICA (linker 4-12-16 via TATA) [BCY7280] showed an inhibition constant Ki of 219 nM.

For the molecule Q[hArg]WCAPLSDYWCNRICA (linker 4-12-16 via TATA) [BCY7278], the affinity, expressed as Ki, was 69 nM.

Regarding Ac-CPFGCMKNWS[2Nal]PIWC (linker 1-5-15 via TATA) [BCY7592], the inhibitory constant (Ki) worked out at 37.4 nM.

XACPFGCMKNWSWPIWCA (N-terminal X = 1-Nal; TATA on 3 Cys, also called 80-09-02-N009) [BCY7420] had an inhibition constant (Ki) of 63.6 nM.

As to Ac-CPFGCMKNWSW[Pip]IWC (linker 1-5-15 via TATA) [BCY7595], the affinity corresponds to a Ki of 219 nM.

ACPFGCMKNWSAPIWCTNK (linker 2-6-16 via TATA, also called 80-09-02-T01-N012) [BCY7342] showed a Ki of 310 nM.

Regarding ACPFGCMKAWSWPIWCTNK (linker 2-6-16 via TATA, also called 80-09-02-T01-N027) [BCY7357], the inhibitory constant (Ki) was found to be 45.2 nM.

Take ACPFGCMKNWSWPIWCTNA (linker 2-6-16 via TATA, also called 80-09-02-T01-N018) [BCY7348]: the Ki was 20.6 nM.

Molecule ACPFGCMANWSWPIWCTNK (linker 2-6-16 via TATA, also called 80-09-02-T01-N026) [BCY7356] registered a Ki of 43.4 nM.

ACPFGCMKNWSWPIWC[dA]NK (linker 2-6-16 via TATA) [BCY7367] displayed a Ki of 26.3 nM.

ACPFGCMKNWSWPIWCTAK (linker 2-6-16 via TATA, also called 80-09-02-T01-N017) [BCY7347]: affinity was put at a Ki of 36.1 nM. The Ki values of the last two molecules are within 1.5-fold of each other.

For ACPFGCMKNWSWPIWCANK (linker 2-6-16 via TATA, also called 80-09-02-T01-N016) [BCY7346], the affinity, expressed as Ki, was 64.9 nM.

Regarding ACPFGCMKNWSWPAWCTNK (linker 2-6-16 via TATA, also called 80-09-02-T01-N014) [BCY7344], the affinity, expressed as Ki, was 39.8 nM. Against the preceding molecule, the Ki is about 1.6-fold lower.

ACAFGCMKNWSWPIWCTNK (linker 2-6-16 via TATA, also called 80-09-02-T01-N022) [BCY7352] showed a Ki of 132 nM. This Ki lies about 3.3-fold higher than the previous one.

Regarding ACPFACMKNWSWPIWCTNK (linker 2-6-16 via TATA, also called 80-09-02-T01-N020) [BCY7354], the inhibition constant Ki is 884 nM.

For the molecule HDSCPFGCM[dK]SWSWPIWCA (linker 4-8-18 via TATA) [BCY7276], the Ki stood at 326 nM.

Molecule Q[dK]WCAPLSDYWCNRICA (linker 4-12-16 via TATA) [BCY7426] showed a Ki of 69 nM.

The molecule Ac-CPFGCMKNWS[1Nal]PIWC (linker 1-5-15 via TATA) [BCY7591] showed a Ki of 180 nM.

Molecule [dH]DSCPFGCMKSWSWPIWCA (linker 4-8-18 via TATA) [BCY7272] registered an inhibition constant Ki of 41 nM.

Take ACWPLDDYWCPRICPQA (linker 2-10-14 via TATA) [BCY3401]: the Ki was 154 nM.

In turn, XACPFGCMKNWSWPIWCA (N-terminal X = 44BPA (4,4-biphenylalanine); TATA on 3 Cys, also called 80-09-02-N012) [BCY7521] gave a Ki of 224 nM. This Ki and that of the molecule before are within 1.5-fold of each other.

In turn, Ac-CPFGCMKNWSW[Aze]IWC (linker 1-5-15 via TATA) [BCY7594] showed a Ki of 73 nM. This Ki lies about 3.1-fold lower than the previous one.

The molecule ACPFGCMSDWSWPIWCSTD (linker 2-6-16 via TATA) [BCY3399] yielded a Ki of 410 nM.

In turn, Ac-CVTTSYDCWVTLGHCSRF (linker 1-8-15 via TATA) came in with a Ki of 232 nM.

Consider HDSCPFGCMK(Ac)SWSWPIWCA (linker 4-8-18 via TATA) [BCY7273], for which affinity was put at a Ki of 84 nM.

The molecule HDSCPFGCM[hArg]SWSWPIWCA (linker 4-8-18 via TATA) [BCY7275] returned a Ki of 43.3 nM. This Ki lies about 1.9-fold lower than the previous one.

The molecule ACPFGCM[dA]NWSWPIWCTNK (linker 2-6-16 via TATA) [BCY7359] gave a Ki of 160 nM.

In turn, Ac-CPFGCMKNWSWPIWCTNK (linker 1-5-15 via TATA, also called 80-09-02-T01-N011) yielded a Ki of 13.3 nM.

As to ACPFGCXKNWSWPIWCTNK (core CPFGC(Nle)KNWSWPIWC (printed (NIe)); TATA on 3 Cys, also called 80-09-02-T01-N041) [BCY7372], the affinity, expressed as Ki, was 72.6 nM.

As for ACPFGCMK[dA]WSWPIWCTNK (linker 2-6-16 via TATA) [BCY7360], the inhibition constant (Ki) is 68.2 nM. The Ki values of the last two molecules are within 1.5-fold of each other.

With ACPFGCM[hArg]NWSWPIWCTNK (linker 2-6-16 via TATA) [BCY7265], the Ki is 38.3 nM.

The next test addresses T2, Human Nectin-4 (residues Gly32-Ser349) with C-terminal FLAG tag, biotinylated (human, UniProt Q96NY8 32-349, randomly biotinylated with EZ-Link Sulfo-NHS-LC-LC-Biotin).
T2 construct: range 32-349; Captured through biotin on a streptavidin CM5 chip in the SPR assay; also called PVRL4; not shown: C-terminal FLAG tag
T2 sequence (looked up): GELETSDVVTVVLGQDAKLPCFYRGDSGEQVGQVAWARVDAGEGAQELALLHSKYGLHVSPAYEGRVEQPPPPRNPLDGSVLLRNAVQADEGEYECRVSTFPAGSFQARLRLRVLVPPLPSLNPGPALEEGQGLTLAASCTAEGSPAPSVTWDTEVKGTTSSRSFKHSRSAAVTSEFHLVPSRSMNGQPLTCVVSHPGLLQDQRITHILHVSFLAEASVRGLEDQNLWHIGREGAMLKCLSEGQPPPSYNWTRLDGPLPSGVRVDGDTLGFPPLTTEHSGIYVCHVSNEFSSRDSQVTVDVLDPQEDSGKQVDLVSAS
In words: SPR (Biacore), biotinylated human Nectin-4 on streptavidin chip. (Surface plasmon resonance follows binding to a sensor surface in real time, without labels.)
Regarding Ac-QKWCAPLSDYWCNRIC (linker 4-12-16 via TATA, Bicyclic peptide cyclised with TATA) [BCY7392], the dissociation constant (Kd) was 35.7 nM. In other words, the double-digit nanomolar range.

For the molecule B1, binding was put at a Kd of 334 nM.

Take Ac-CVTTSYDCWVTLGHCSRF (linker 1-8-15 via TATA, Bicyclic peptide cyclised with TATA): the Kd was 1380 nM. Against the preceding molecule, the Kd is about 4.1-fold higher.

Consider B2, for which the affinity, expressed as Kd, was 59.8 nM.

B3 gave a Kd of 40.3 nM. The Kd values of the last two molecules are within 1.5-fold of each other.

For the origin of these results see patent US20210269480A1 (published 2021).
